Paper PMC3928670

What was measured:
[1] = molecular target: BcerB, TOMM dehydrogenase (B-protein) from Bacillus cereus 172560W (Bacillus cereus 172560W); assay: fluorescence polarisation
[2] = molecular target: McbB/D (Escherichia coli) (UniProt P23184); conditions: cited from earlier work
UniProt P23184, sequence (P23184 whole entry, chain 1 of 2): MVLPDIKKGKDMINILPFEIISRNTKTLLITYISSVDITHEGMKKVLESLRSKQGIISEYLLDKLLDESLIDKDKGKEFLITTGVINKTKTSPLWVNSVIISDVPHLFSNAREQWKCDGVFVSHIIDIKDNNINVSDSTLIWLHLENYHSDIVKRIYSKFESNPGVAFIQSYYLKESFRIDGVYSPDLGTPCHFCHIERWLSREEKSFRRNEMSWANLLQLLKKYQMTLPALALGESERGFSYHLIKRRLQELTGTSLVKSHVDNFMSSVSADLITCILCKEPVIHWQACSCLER
UniProt P23184, sequence (P23186 whole entry, chain 2 of 2, further chain): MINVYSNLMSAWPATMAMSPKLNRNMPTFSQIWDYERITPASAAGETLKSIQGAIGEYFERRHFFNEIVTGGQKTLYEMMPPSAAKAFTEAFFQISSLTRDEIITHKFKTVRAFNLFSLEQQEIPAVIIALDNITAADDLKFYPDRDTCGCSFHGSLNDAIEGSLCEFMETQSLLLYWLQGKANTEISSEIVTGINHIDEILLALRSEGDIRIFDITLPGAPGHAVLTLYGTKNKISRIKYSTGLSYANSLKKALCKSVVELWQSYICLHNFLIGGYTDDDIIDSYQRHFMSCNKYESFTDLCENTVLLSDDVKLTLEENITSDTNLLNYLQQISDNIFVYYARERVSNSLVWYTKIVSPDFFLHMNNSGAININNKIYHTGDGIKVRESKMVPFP

Row | Kd [1] | Substance | Kd [2]
1 | 1.7 µM | Balh cyclodehydratase (BalhC/D) from Bacillus sp. Al Hakam (complex) | 
2 |  | McbC (from UniProt P23185) | 1.8 µM
